Test results: paper PMC7229837, “Molecular architecture of the DNA-binding sites of the P-loop ATPases MipZ and ParA from Caulobacter crescentus”
Substitutions are numbered along the chain they refer to.

Key:
Details in all cases: protein: recombinant; tags: C-terminal His6 (pET21a); chain copies: 2; label: Cy3 (5') on strand 1; blunt
MipZ L248A = biological target: T1, MipZ L248A (Caulobacter crescentus, UniProt Q9A6C9 1-278, L248A); experiment: MST; EMSA: 10 mM HEPES/NaOH pH 7.2, 150 mM NaCl, 10 mM MgCl2, 0.05% Tween 20, 0.46 mM ATPgS, room temp; BLI: 50 mM HEPES/NaOH pH 7.2, 50 mM NaCl, 5 mM MgCl2, 0.1 mM
T1 sequence: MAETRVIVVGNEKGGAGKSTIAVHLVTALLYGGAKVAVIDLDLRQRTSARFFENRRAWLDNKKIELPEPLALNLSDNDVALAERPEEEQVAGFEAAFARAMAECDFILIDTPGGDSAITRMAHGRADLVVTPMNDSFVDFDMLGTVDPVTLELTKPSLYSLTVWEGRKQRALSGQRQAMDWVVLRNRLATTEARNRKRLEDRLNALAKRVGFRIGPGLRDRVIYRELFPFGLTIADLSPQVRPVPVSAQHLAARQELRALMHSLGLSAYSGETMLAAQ

MipZ D42A = biological target: T2, MipZ D42A (Caulobacter crescentus, UniProt Q9A6C9 1-278, D42A); experiment: as above
T2 sequence: T1 sequence with D42A, A248L

MipZ WT = biological target: T3, MipZ WT (Caulobacter crescentus, UniProt Q9A6C9 1-278); experiment: as above
T3 sequence: T1 sequence with A248L

MipZ K197A = biological target: T4, MipZ K197A (Caulobacter crescentus, UniProt Q9A6C9 1-278, K197A); experiment: MST; low-affinity group, KD >> 10 uM; EMSA: 10 mM HEPES/NaOH pH 7.2, 150 mM NaCl, 10 mM MgCl2, 0.05% Tween 20, 0.46 mM ATPgS, room temp; BLI: 50 mM HEPES/NaOH pH 7.2, 50 mM NaCl, 5 mM MgCl2, 0.1 mM
T4 sequence: T1 sequence with K197A, A248L

MipZ R242A = biological target: T5, MipZ R242A (Caulobacter crescentus, UniProt Q9A6C9 1-278, R242A); experiment: as above
T5 sequence: T1 sequence with R242A, A248L

MipZ R196A = biological target: T6, MipZ R196A (Caulobacter crescentus, UniProt Q9A6C9 1-278, R196A); experiment: as above
T6 sequence: T1 sequence with R196A, A248L

B1: rand-Cy3/rand-rev 26 bp (dsDNA)
DNA 1: GAGGCAGACTAGATCTTCTAGTTCGG
DNA 2: CCGAACTAGAAGATCTAGTCTGCCTC
Work on B1 yielded a Kd (MipZ L248A) of less than 10 µM, a Kd (MipZ D42A) of less than 10 µM and a Kd (MipZ WT) of less than 10 µM. For the same binder, the Kd (MipZ K197A) was greater than 10 µM, the Kd (MipZ R242A) was greater than 10 µM and the Kd (MipZ R196A) was greater than 10 µM.
